Measurements: patent publication US9739733B2, “Methods for monitoring tight clot formation” (T2 Biosystems, Inc., priority 2012, dated 2017)

How the values were obtained:
whole blood clot [1] = test: T2Coagulation / TEG LY30 fibrinolysis in healthy patient blood; type: cell-based, human; conditions: kaolin runs
Description: Five different healthy patient samples were used to test whether T2Coagulation was sensitive to fibrinolysis. Addition of tissue plasminogen activator (TPA) was used to simulate fibrinolysis by adding it at two levels to healthy patient blood. TPA cleaves fibrin as it forms. It was observed that fibrinolysis can be detected within 10 minutes on T2Coagulation, which is less than half the time required for detection on TEG. For all five patients there was a clear difference between healthy and fibrinolytic samples.
There are several potential features that can be used for this correlation. Three that were investigated were the difference between (i) the minimum and maximum T2B values (FIG. 13), (ii) the average of the T2B values over the final 25 minutes of the T2B curves, and (iii) the T2B values at 10 minutes. All had correlations with R^2 values between 0.72 and 0.79. The correlation plots show a higher sensitivity of T2Coagulation for fibrinolysis than TEG. This can be seen by the groupings for the different levels of fibrinolysis in FIG. 13. The healthy patient samples are circled with the solid line. […] The T2Coagulation T2B term can be detected in as little as 10 minutes, which is much faster than the TEG LY30 term can be detected, indicating the utility of the T2Coagulation signal for more rapid measurement of fibrinolysis.

whole blood clot [2] = test: T2MR whole blood fibrinolysis with spiked TPA; type: cell-based, human; conditions: 100 U/mL TPA, blood from a healthy donor
Description: The T2MR surface is also sensitive to whole blood fibrinolysis. To assess this, healthy donor samples were spiked with tissue plasminogen activator (TPA).
TPA was added at 100 U/mL to blood from a healthy donor. In the absence of TPA (see FIG. 27a) two stable peaks form at the expected clotting time. […] Both the instability and the distance between the final T2 peaks indicate sensitivity to fibrinolysis induced by the presence of TPA.
The T2MR effect on fibrinolysis was expressed in AU values (arbitrary units; see FIG. 27c) obtained by calculating the difference between the maximum and minimum T2 value observed for the clot signal (or T2B) in the T2 time curve.
Fibrinolysis was monitored by T2 magnetic resonance (T2MR) in five patient blood samples with and without the addition of TPA (100 U/mL) (FIG. 27c). […] All other samples required addition of TPA to induce fibrinolysis, as confirmed by the reference method.

[3] = test system: IIb/IIIa receptor of human platelets; test: TEG clot strength (MA) of whole blood spiked with abciximab; type: cell-based; conditions: patient sample 29494
Description: The clotting of a whole blood sample was perturbed using the antithrombotic agent abciximab (ReoPro®). Abciximab is the Fab fragment of a human-murine monoclonal antibody that binds to the IIb/IIIa receptor of human platelets and inhibits platelet aggregation. Abciximab serves to inhibit the retraction of a clot during the clotting process.
Samples containing abciximab were prepared according to the following procedure and referenced in the application and Figures by a number corresponding to the concentration of abciximab in units of μg/mL.
1. Blood was drawn from normal donors into six citrate tubes. Normal donors must not have taken aspirin or any anti-platelet drug in the past two weeks.
2. The six tubes of blood were pooled and mixed gently by inversion eight to ten times. Samples were used within two hours of collection.
3. A abciximab solution (10 mg/5 mL) was diluted at a ratio of 1:4 using saline as a diluent to form “solution 1.”
4. The blood was spiked with solution 1 and saline according to Table 5
5. The samples were allowed to sit for at least five minutes prior to running any sample in a T2reader or Bruker minispec.
In a second experiment, five aliquots of patient sample 29494 were prepared with different concentrations (0, 2, 4, 8, and 0 μg/mL) of abciximab prior to initiation of the clotting process. The T2 relaxations times for the samples were measured in series, with each set of measurements lasting approximately 50 min. The first sample tested and the final sample tested contained no added abciximab. The collected T2 decay curves were processed using Inverse Laplace Transforms, as described in Example 18. […] The difference in the curve shape between the first sample run and the final sample run, both of which contained no added abciximab, may be evidence of an effect of sample age on the T2 time distribution. The corresponding TEG-determined MA values for these samples was 60.7, 61.4, 30.4, and 22.0, respectively.

[4] = test system: platelet activity in whole blood; test: T2 relaxation spectra / 3D plots of clotting whole blood spiked with abciximab; type: cell-based, human
Description: T2 relaxation rate data was collected from CK blood samples drawn from healthy patients. For each sample, a series of T2 decay curves were measured over a period of 50 minutes. The decay curves were each processed using an Inverse Laplace Transform (ILT CONTIN) to provide an array of curves showing T2 intensity as a function of T2 time. […] FIG. 20 illustrates the 3D data sets for patient samples 29328 and 29350 collected on a Bruker minispec. […] At a time between 5 minutes and 30 minutes, the single water population diverged into two significant water populations. These two water populations correspond to the two components of the clot, i.e., the retracted clot and the serum surrounding the retracted clot. […] For some samples these two peaks were not entirely resolved. The correlation between the water populations and the components of the clotted sample was confirmed by separating the retracted clot from the surrounding serum and separately measuring the T2 data for these two components.
In a first experiment, four aliquots of patient sample 29488 were prepared with different concentrations of abciximab (0, 2, 4, and 8 μg/mL) prior to initiation of the clotting process. The T2 relaxation times for the four samples were measuring over the course of clot formation and the corresponding 3D plots were determined using the technique described in Example 13. […] This physical change is evidenced and quantified in the corresponding 3D plots (FIG. 21), showing fast exchange of water within the uniform sample at the highest concentration of abciximab.
In a second experiment, five aliquots of patient sample 29494 were prepared with different concentrations (0, 2, 4, 8, and 0 μg/mL) of abciximab prior to initiation of the clotting process. The T2 relaxations times for the samples were measured in series, with each set of measurements lasting approximately 50 min. […] The corresponding TEG-determined MA values for these samples was 60.7, 61.4, 30.4, and 22.0, respectively.

B1: Cathflo®: recombinant alteplase manufactured by Genentech (protein, UniProt P00750 36-562, looked up)
Tissue-type plasminogen …: SYQVICRDEKTQMIYQQHQSWLRPVLRSNRVEYCWCNSGRAQCHSVPVKSCSEPRCFNGGTCQQALYFSDFVCQCPEGFAGKCCEIDTRATCYEDQGISYRGTWSTAESGAECTNWNSSALAQKPYSGRRPDAIRLGLGNHNYCRNPDRDSKPWCYVFKAGKYSSEFCSTPACSEGNSDCYFGNGSAYRGTHSLTESGASCLPWNSMILIGKVYTAQNPSAQALGLGKHNYCRNPDGDAKPWCHVLKNRRLTWEYCDVPSCSTCGLRQYSQPQFRIKGGLFADIASHPWQAAIFAKHRRSPGERFLCGGILISSCWILSAAHCFQERFPPHHLTVILGRTYRVVPGEEEQKFEVEKYIVHKEFDDDTYDNDIALLQLKSDSSRCAQESSVVRTVCLPPADLQLPDWTECELSGYGKHEALSPFYSERLKEAHVRLYPSSRCTSQHLLNRTVTDNMLCAGDTRSGGPQANLHDACQGDSGGPLVCLNDGRMTLVGIISWGLGCGQKDVPGVYTKVTNYLDWIRDNMRP
modifications: alteplase
notes: recombinant alteplase manufactured by Genentech
degree of fibrinolysis (whole blood clot [1]; 60 ng/mL): partially fibrinolytic | degree of fibrinolysis (whole blood clot [1]; 118 ng/mL): fully fibrinolytic

B2: TPA: tissue plasminogen activator (protein, UniProt P00750 36-562, looked up)
Tissue-type plasminogen …: B1 Tissue-type plasminogen …
clot stability (T2MR peaks) (whole blood clot [2]): unstable after 20-30 minutes

B3: abciximab (antibody, chains of the INN, looked up, V domains shown)
VH: EVQLQQSGTVLARPGASVKMSCEASGYTFTNYWMHWVKQRPGQGLEWIGAIYPGNSDTSYIQKFKGKAKLTAVTSTTSVYMELSSLTNEDSAVYYCTLYDGYYVFAYWGQGTLVTVSA
VL: EIVLTQSPVTLSVTPGDSVSLSCRASRDISNNLHWFQQTSHESPRLLIKYASQSMSGIPSRFSGSGSGTDFTLSINSVETEDFGMYFCQQTNSWPYTFGGGTKLEIK
modifications: Fab
TEG-determined MA ([3]; abciximab 2 μg/mL): 61.4 | TEG-determined MA ([3]; abciximab 4 μg/mL): 30.4 | TEG-determined MA ([3]; abciximab 8 μg/mL): 22.0 | clot associated and serum associated T2 signal ([4]; 8 μg/mL Reopro®, T2reader): reduces the signal intensity of the clot associated signal and shifts the serum associated signal to lower T2 values | distribution of T2 signals within the initial water population ([4]; at 0.1 minutes, abciximab 2, 4, 8 μg/mL, patient sample 29494): narrower distribution of T2 signals | retracted clot and serum water populations in 3D plot ([4]; highest concentration of abciximab (8 μg/mL), patient sample 29488): no longer two phases visible within the clot
